# Measured values: patent publication US20170283834A1, “Processes for Producing A Fermentation Product Using A Fermenting Organism” (Novozymes A/S, priority 2014, published 2017)
# Changes are numbered by the printed parent chain. Names and notes keep the numbering of the source.
# B1: JTP040: protease variant of SEQ ID NO: 3: T54R/D79L/S87P (protein, listed as Thermoascus aurantiacus)
# chain: MRLVASLTALVALSVPVFPAAVNVKRASSYLEITLSQVSNTLIKAVVQNTGSDELSFVHLNFFKDPAPVKKVSVYRDGSEVQFEGILSRYKSTGLSRDAFTYLAPGESVEDVFDIASTYDLTSGGPVTIRTEGVVPYATANSTDIAGYISYSSNVLTIDVDGAAAATVSKAITPLDRRTRISSCSGSRQSALTTALRNAASLANAAADAAQSGSASKFSEYFKTTSSSTRQRVAARLRAVAREASSSSSGATTYYCLDPYGYCSPNVLAYTLPSYNIIANCDIFYTYLPALTSTCHAQDQATTALHEFTHAPGVYSPGTDDLAYGYQAAMGLSSSQAVMNADTYALYANAIYLGC
# B2: JTP135: protease variant of SEQ ID NO: 3: S38T D79L S87P A112P A126V D142L (protein, listed as Thermoascus aurantiacus)
# chain: B1 chain with S216T, R232T, A290P, A304V, D320L
# B3: JTP052: protease variant of SEQ ID NO: 3: D79L/S87P/A112P/D142L/S157K (protein, listed as Thermoascus aurantiacus)
# chain: B1 chain with R232T, A290P, D320L, S335K
# B4: JTP051: protease variant of SEQ ID NO: 3: S41R/D79L/S87P/A112P/D142L (protein, listed as Thermoascus aurantiacus)
# chain: B1 chain with S219R, R232T, A290P, D320L
# B5: JTP042: protease variant of SEQ ID NO: 3: Q53K/D79L/S87P/I173V (protein, listed as Thermoascus aurantiacus)
# chain: B1 chain with Q231K, R232T, I351V
# B6: JTP140: protease variant of SEQ ID NO: 3: D79L S87P N98C A112P G135C D142L (protein, listed as Thermoascus aurantiacus)
# chain: B1 chain with R232T, N276C, A290P, G313C, D320L
# B7: JTP143: protease variant of SEQ ID NO: 3: S36P D79L S87P A112P D142L (protein, listed as Thermoascus aurantiacus)
# chain: B1 chain with S214P, R232T, A290P, D320L
# B8: JTP061: protease variant of SEQ ID NO: 3: T46R/D79L/S87P (protein, listed as Thermoascus aurantiacus)
# chain: B1 chain with T224R, R232T
# B9: JTP068: protease variant of SEQ ID NO: 3: D79L/S87P/T114P (protein, listed as Thermoascus aurantiacus)
# chain: B1 chain with R232T, T292P
# B10: JTP071: protease variant of SEQ ID NO: 3: D79L/S87P/T116V (protein, listed as Thermoascus aurantiacus)
# chain: B1 chain with R232T, T294V
# B11: JTP048: protease variant of SEQ ID NO: 3: D79L/S87P/D104R (protein, listed as Thermoascus aurantiacus)
# chain: B1 chain with R232T, D282R
# B12: JTP136: protease variant of SEQ ID NO: 3: D79L Y82F S87P A112P A126V D142L (protein, listed as Thermoascus aurantiacus)
# chain: B1 chain with R232T, Y260F, A290P, A304V, D320L
# B13: JTP090: protease variant of SEQ ID NO: 3: D79L/S87P/A112P/T124L/D142L (protein, listed as Thermoascus aurantiacus)
# chain: B1 chain with R232T, A290P, T302L, D320L
# B14: JTP053: protease variant of SEQ ID NO: 3: S41R/D79L/S87P/A112P/D142L/S157K (protein, listed as Thermoascus aurantiacus)
# chain: B1 chain with S219R, R232T, A290P, D320L, S335K
# B15: JTP078: protease variant of SEQ ID NO: 3: A27V/D79L/S87P/A112P/D142L (protein, listed as Thermoascus aurantiacus)
# chain: B1 chain with A205V, R232T, A290P, D320L
# B16: JTP064: protease variant of SEQ ID NO: 3: D79L/S87P/N88R (protein, listed as Thermoascus aurantiacus)
# chain: B1 chain with R232T, N266R
# B17: JTP072: protease variant of SEQ ID NO: 3: N26R/D79L/S87P (protein, listed as Thermoascus aurantiacus)
# chain: B1 chain with N204R, R232T
# B18: JTP079: protease variant of SEQ ID NO: 3: A27G/D79L/S87P/A112P/D142L (protein, listed as Thermoascus aurantiacus)
# chain: B1 chain with A205G, R232T, A290P, D320L
# B19: JTP043: protease variant of SEQ ID NO: 3: Q53R/D79L/S87P (protein, listed as Thermoascus aurantiacus)
# chain: B1 chain with Q231R, R232T
# B20: JTP069: protease variant of SEQ ID NO: 3: D79L/S87P/S115R (protein, listed as Thermoascus aurantiacus)
# chain: B1 chain with R232T, S293R
# B21: JTP046: protease variant of SEQ ID NO: 3: D79L/S87P/Q158W (protein, listed as Thermoascus aurantiacus)
# chain: B1 chain with R232T, Q336W
# B22: JTP045: protease variant of SEQ ID NO: 3: S41R/D79L/S87P (protein, listed as Thermoascus aurantiacus)
# chain: B1 chain with S219R, R232T
# B23: JTP047: protease variant of SEQ ID NO: 3: D79L/S87P/S157K (protein, listed as Thermoascus aurantiacus)
# chain: B1 chain with R232T, S335K
# B24: JTP083: protease variant of SEQ ID NO: 3: T46R/D79L/S87P/A112P/D142L (protein, listed as Thermoascus aurantiacus)
# chain: B1 chain with T224R, R232T, A290P, D320L
# B25: JTP063: protease variant of SEQ ID NO: 3: S49R/D79L/S87P (protein, listed as Thermoascus aurantiacus)
# chain: B1 chain with S227R, R232T
# B26: JTP137: protease variant of SEQ ID NO: 3: A27K D79L S87P A112P A126V D142L (protein, listed as Thermoascus aurantiacus)
# chain: B1 chain with A205K, R232T, A290P, A304V, D320L
# B27: JTP141: protease variant of SEQ ID NO: 3: D79L S87P A112P D142L T141C M161C (protein, listed as Thermoascus aurantiacus)
# chain: B1 chain with R232T, A290P, T319C, D320L, M339C
# B28: JTP059: protease variant of SEQ ID NO: 3: C6R/D79L/S87P (protein, listed as Thermoascus aurantiacus)
# chain: B1 chain with C184R, R232T
# B29: JTP088: protease variant of SEQ ID NO: 3: Y43F/D79L/S87P/A112P/D142L (protein, listed as Thermoascus aurantiacus)
# chain: B1 chain with Y221F, R232T, A290P, D320L
# B30: JTP054: protease variant of SEQ ID NO: 3: ΔS5/D79L/S87P (protein, listed as Thermoascus aurantiacus)
# chain: MRLVASLTALVALSVPVFPAAVNVKRASSYLEITLSQVSNTLIKAVVQNTGSDELSFVHLNFFKDPAPVKKVSVYRDGSEVQFEGILSRYKSTGLSRDAFTYLAPGESVEDVFDIASTYDLTSGGPVTIRTEGVVPYATANSTDIAGYISYSSNVLTIDVDGAAAATVSKAITPLDRRTRISCSGSRQSALTTALRNAASLANAAADAAQSGSASKFSEYFKTTSSSTRQTVAARLRAVAREASSSSSGATTYYCLDPYGYCSPNVLAYTLPSYNIIANCDIFYTYLPALTSTCHAQDQATTALHEFTHAPGVYSPGTDDLAYGYQAAMGLSSSQAVMNADTYALYANAIYLGC
# B31: JTP055: protease variant of SEQ ID NO: 3: ΔG8/D79L/S87P (protein, listed as Thermoascus aurantiacus)
# chain: B30 chain with C183S, S184C, G185S
# Tested on: zein
# Experiment: Relative activity assay of protease variants (zein micro titer plate)
# Assay type: biochemical
# Method: Each well contains 200 microL of 0.05-0.1% of zein (Sigma), 0.25 mM ZnSO4 and 1% of agar in 20 mM sodium acetate buffer, pH 4.5.
# Yeast clones on SC-glucose were inoculated to a well of a 96-well micro titre plate containing YPD+Zn medium and cultivated at 28° C. for 3 days. The culture supernatants were applied to a 96-well zein micro titer plate and incubated at at least 2 temperatures (ex. 60° C. and 65° C., 70° C. and 75° C., 70° C. and 80° C.) for more than 4 hours or overnight. The turbidity of zein in the plate was measured as A630 and the relative activity (higher/lower temperatures) was determined as an indicator of thermoactivity improvement. The clones with higher relative activity than the parental variant were selected and the sequence was determined.
Molecule,Relative activity 75° C./65° C. (Table 3),Relative activity 75° C./70° C. (Table 3),other results
B1,71%,–,–
B2,–,–,"Relative activity 80° C./70° C. (Table 5, upper part): 62%"
B3,–,111%,–
B4,–,102%,–
B5,108%,–,–
B6,–,–,"Relative activity 75° C./70° C. (Table 5, upper part): 81%"
B7,–,–,"Relative activity 75° C./70° C. (Table 5, upper part): 69%"
B8,–,111%,–
B9,–,99%,–
B10,–,105%,–
B11,88%,–,–
B12,–,–,"Relative activity 80° C./70° C. (Table 5, upper part): 59%"
B13,–,–,Relative activity 75° C./65° C. (Table 4): 141%
B14,–,113%,–
B15,100%,–,–
B16,–,92%,–

Molecule,Relative activity 75° C./65° C. (Table 3),Relative activity 75° C./70° C. (Table 3),other results
B17,92%,–,–
B18,104%,–,–
B19,80%,–,–
B20,–,103%,–
B21,96%,–,–
B22,82%,–,–
B23,85%,–,–
B24,–,–,Relative activity 75° C./65° C. (Table 4): 126%
B25,–,94%,–
B26,–,–,"Relative activity 80° C./70° C. (Table 5, upper part): 54%"
B27,–,–,"Relative activity 75° C./70° C. (Table 5, upper part): 68%"
B28,–,92%,–
B29,–,–,Relative activity 75° C./65° C. (Table 4): 119%
B30,–,92%,–
B31,–,95%,–
